Experiments:
[1] = tested on: type 2 diabetic patients; assay: HbA1c, 24-week phase 2 study on top of metformin (Example 1); format: in vivo, human; settings: mITT population; for HbA1c change from baseline to Week 24 (LOCF), LS Mean (SE): ANCOVA
Experimental: A randomized, 24-week, open-label, 2-arm parallel-group, multicenter study comparing the efficacy and safety of insulin glargine/lixisenatide fixed ratio combination versus insulin glargine on top of metformin in type 2 diabetic patients.
Methodology: This was an open-label, 1:1 randomized, active-controlled, 2-arm, 24-week duration, parallel-group study comparing: • Insulin glargine/lixisenatide fixed ratio (2 U of insulin glargine for 1 μg of lixisenatide) combination • Insulin glargine alone
Diagnosis and criteria for inclusion: Patients with type 2 diabetes mellitus diagnosed for at least 1 year, treated with metformin at a stable dose of at least 1.5 g/day for at least 3 months prior to screening visit, and with HbA1c ≥7%, and ≤10% at screening.
In both groups, the initial daily dose of insulin glargine to be administered during the first week of treatment was 10 U. Afterwards, the dose was adjusted to achieve a target fasting SMPG in the range of 80 to 100 mg/dL (4.4 to 5.6 mmol/L). The dose was titrated weekly until the patient reached the target fasting SMPG. Thereafter, until the end of the study, the dose was adjusted as necessary to maintain a fasting SMPG between 80 and 100 mg/dL (4.4 and 5.6 mmol/1), inclusive. Doses could be reduced or modified at any time for hypoglycemia.
If a 60 U/30 μg dose was not sufficient to maintain FPG/HbA1c below predefined thresholds values, the dose was to be kept at 60 U and a rescue therapy was to be introduced.
(§1) Criteria for Evaluation: • Efficacy: • Primary Endpoint: • Change in HbA1c from baseline to Week 24 • Secondary Endpoints: • Change in 2-hour PPG during meal test from baseline to Week 24 • Change in 2-hour plasma glucose excursion during meal test from baseline to Week 24 • Percentage of patients reaching HbA1c ≤6.5% or <7% at Week 24 • Change in 7-point SMPG profiles from baseline to Week 24 (each time point and mean daily value) • Change in body weight from baseline to Week 24, • Average daily Insulin glargine dose at Week 24 • Change in FPG from baseline to Week 24 • Percentage of patients requiring rescue therapy during the 24-week open-label treatment period • Change in 30-minute and 1-hour PPG and plasma glucose excursion during meal test from baseline to week 24 • Percentage of patients reaching HbA1c <7% at week 24 with no documented symptomatic hypoglycemia during the 24-week open label treatment period • Percentage of patients reaching HbA1c <7% with no weight gain at week 24
The primary endpoint (change in HbA1c from baseline to week 24) was analyzed using an analysis of covariance (ANCOVA) model with treatment (insulin glargine/lixisenatide fixed ratio combination, insulin glargine alone), randomization strata of screening HbA1c (<8%, ≥8%), randomization strata of screening BMI (<30 kg/m^2, ≥30 kg/m^2) and country as fixed effects and using the baseline HbA1c value as a covariate.
The non-inferiority of insulin glargine/lixisenatide fixed ratio combination to insulin glargine alone was tested using a 1-sided statistical test with alpha level of 0.025 and a non-inferiority margin of 0.4% HbA1c. […] If non-inferiority is established, then a corresponding check of statistical superiority of insulin glargine/lixisenatide fixed ratio combination over insulin glargine alone would be performed for the primary endpoint.
All categorical secondary efficacy endpoints were analyzed by using Cochran-Mantel-Haenszel (CMH) method stratified by randomization strata of screening HbA1c (<8%, ≥8%) and BMI (<30 kg/m^2, ≥30 kg/m^2).

[2] = Body weight (Example 1); format: in vivo, human; settings: for Body weight change from baseline to Week 24 (LOCF), LS Mean (SE): ANCOVA
Excerpt: as §1
All continuous secondary efficacy endpoints were analyzed using a similar ANCOVA model with treatment, randomization strata of screening HbA1c (<8%, ≥8%), randomization strata of screening BMI (<30 kg/m^2, ≥30 kg/m^2) and country as fixed effects and using the baseline value of the corresponding parameter as a covariate. Insulin glargine dose was not included in the ANCOVA model as a covariate since patients enrolled were insulin-naïve.

[3] = tested on: type 2 diabetic patients; assay: Injection site reactions and allergic reactions adjudicated by ARAC (Example 1); format: in vivo, human
Excerpt: A total of 6 patients (5 patients in the combination group and 1 patient in the insulin glargine group) experienced injection site reactions (Table 19). None of these reactions were considered serious or severe or led to treatment discontinuation.
A total of 2 patients (1 [0.6%] in each group) reported 6 events positively adjudicated as allergic reactions by the ARAC with the same diagnosis of allergic rhinitis. None was adjudicated as possibly related to the IMP (table 20).

[4] = tested on: type 2 diabetic patients; assay: Lipase, amylase and calcitonin monitoring (Example 1); parameters: species or system human; settings: in vivo
Excerpt: Per protocol, any increase in amylase and/or lipase above twice the upper limit of normal range (ULN) or in Calcitonin ≥20 pg/mL that had been confirmed by a repeat measurement was to be monitored and documented on a specific AE form. […] No patients reported a TEAE of increased calcitonin (≥20 pg/mL).
The number of patients who had at least 1 value of lipase or amylase ULN, or at least 1 value of calcitonin ≥20 pg/ml during the on-treatment period was also summarized. One patient in the insulin glargine group had at least 1 value of amylase ≥3 ULN, and 5 patients (4 in the combination group and 1 in the insulin glargine group) had at least 1 value of lipase ≥3 ULN. One patient in the insulin glargine group had 1 value of calcitonin ≥20 pg/ml (but <50 pg/ml) with retested values within the normal range.

[5] = tested on: type 2 diabetic patients; assay: Premature treatment discontinuation, patient disposition (Example 1); settings: human, in vivo
Excerpt: During the 24-week study treatment period, 11 (6.8%) combination-treated patients prematurely discontinued the IMP, compared with 3 (1.9%) insulin glargine-treated patients. For combination-treated patients, the most common reasons for treatment discontinuation was “adverse event” (6 patients [3.7%] versus 0 patient in the insulin glargine group) followed by “other reasons” (4 patients [2.5%] versus 2 patients [1.2%] in the insulin glargine group).

[6] = investigator reported terms, Safety population

Gly(A21)-Arg(B31)-Arg(B32)-human insulin [Insulin Glargine]
HbA1c at Week 24 (LOCF), Mean (SD) [1]: 6.47 (0.64) % | HbA1c at Week 24 (LOCF), Median [1]: 6.40% | HbA1c change from baseline to Week 24 (LOCF), Mean (SD) [1]: −1.54 (0.87) % | HbA1c change from baseline to Week 24 (LOCF), Median [1]: −1.40% | Number (%) of patients with HbA1c <7.0% at Week 24 [1]: 126 (78.3%) n (%) | Number (%) of patients with HbA1c ≤6.5% at Week 24 [1]: 104 (64.6%) n (%) | Percentage of patients reaching HbA1c <7% at Week 24 [1]: 78.3% | Percentage of patients reaching HbA1c ≤6.5% at Week 24 [1]: 64.6% | HbA1c change from baseline to Week 24 (LOCF), LS Mean (SE) [1]: −1.64 (0.057) % | HbA1c change from baseline to Week 24 (LOCF), LS Mean (SE) ([1]; listed as insulin glargine): −1.64% | Body weight at Week 24 (LOCF), Mean (SD) ([2]; mITT population): 92.09 (16.30) kg | Body weight at Week 24 (LOCF), Median ([2]; mITT population): 91.00 kg | Body weight change from baseline to Week 24 (LOCF), Mean (SD) ([2]; mITT population): 0.39 (2.96) kg | Body weight change from baseline to Week 24 (LOCF), Median ([2]; mITT population): 0.35 kg | Body weight change from baseline to Week 24 (LOCF), LS Mean (SE) ([2]; mITT population): 0.48 (0.282) kg | Body weight change from baseline to Week 24 (LOCF), LS Mean (SE) ([2]; mITT population, listed as insulin glargine): +0.48 kg | LS mean body weight increase from baseline to week 24 ([2]; worded as increased by): 0.48 kg | Injection site reaction ([3]; ARAC diagnosis terms, Safety population): 0 n (%) | Rhinitis allergic (ARAC diagnosis ALLERGIC RHINITIS) ([3]; Not related to IMP, Safety population): 1 (0.6%) n (%) | Events adjudicated as an allergic reaction by ARAC ([3]; Not related to IMP, TEAE period, Safety population): 1 (0.6%) n (%) | Any injection site reactions ([3]; TEAE period, Safety population): 1 (0.6%) n (%) | Injection site reactions: PTs coded from the ARAC diagnosis terms ([3]; TEAE period, Safety population): 0 n (%) | Injection site reactions: PTs coded from the investigator reported terms ([3]; TEAE period, Safety population): 1 (0.6%) n (%) | Patients who experienced injection site reactions ([3]; in vivo): 1 patients | Injection site pain [3, 6]: 1 (0.6%) n (%) | Injection site pruritus [3, 6]: 0 n (%) | Injection site rash [3, 6]: 0 n (%) | Injection site urticaria [3, 6]: 0 n (%) | Rhinitis allergic (ARAC diagnosis ALLERGIC RHINITIS) ([3]; relationship to study treatment: All, Safety population): 1 (0.6%) n (%) | Events adjudicated as an allergic reaction by ARAC ([3]; relationship to study treatment: All, TEAE period, Safety population): 1 (0.6%) n (%) | Patients with 1 value of calcitonin ≥20 pg/ml (but <50 pg/ml) [4]: One | Patients with TEAE of amylase increased (>2 ULN) reported on the specific AE form [4]: 1 patient | Patients with TEAE of lipase increased (>2 ULN) reported on the specific AE form [4]: 1 [0.6%] n (%) | Patients with at least 1 value of amylase ≥3 ULN [4]: One | Patients with at least 1 value of lipase ≥3 ULN [4]: 1 patients | Patients who prematurely discontinued the IMP [5]: 3 (1.9%) n (%) | Treatment discontinuation, reason adverse event [5]: 0 n (%)
